Source: patent publication US20180148718, “COMPOUNDS AND METHODS FOR INCREASING ANTISENSE ACTIVITY” (Ionis Pharmaceuticals, Inc., published 2018)

Target: Hsp90alpha (UniProt P07900 P07900:2-732)
Assay: filter; nitrocellulose double-filter binding, printed as binding constant
Settings: label: 5' biotin-TEG, radiolabel
Experimental: The protein-bound ASOs were transferred to a nitrocellulose membrane and the signal intensity was determined. As a control, no significant binding was found for a PS/DNA ASO. The specific binding of protein-bound ASO to the nitrocellulose membrane was confirmed using a double-filter binding assay for PS/cEt and PS/LNA ASOs. The unbound ASOs were attracted using a Hybond-N+Nylon membrane under the Hybond ECL nitrocellulose membrane.

Work on CTGCTAGCCTCTGGATTTGA (XNA, 5-10-5 gapmer, LNA wings 1-5 and 16-20, 2'-deoxy gap, all C 5mC, full PS) [Isis 586184 (PS/LNA)] yielded a Kd of 17.7 nM.
